Assay results: patent publication US11028172

Key:
[1] = target: biotin-labeled human TIGIT protein (human) (UniProt Q495A1); experiment: ELISA blocking assay: CD155-hFc coated, biotin-labeled human TIGIT, antibody titrated
[2] = target: human TIGIT-His protein (human) (UniProt Q495A1); experiment: ELISA, plate coated with human TIGIT-His, anti-human IgG-HRP, OD 450nm; unit taken from the axis Log[Conc.]/ng/ml
[3] = target: human TIGIT expressed on cells (human) (UniProt Q495A1); experiment: flow cytometry on human TIGIT overexpressing cells, Alexa Fluor 647 anti-human IgG; fitted top of a flat control curve, unit from the y axis
Sequence of human TIGIT expressed on cells (human) (Q495A1 22-244): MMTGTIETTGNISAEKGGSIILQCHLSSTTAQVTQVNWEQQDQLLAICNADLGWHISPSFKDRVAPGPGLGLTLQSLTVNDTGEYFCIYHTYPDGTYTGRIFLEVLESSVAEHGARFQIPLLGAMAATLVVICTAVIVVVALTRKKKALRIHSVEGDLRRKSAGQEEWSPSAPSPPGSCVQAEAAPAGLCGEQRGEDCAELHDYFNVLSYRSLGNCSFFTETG

Sequence of biotin-labeled human TIGIT protein (human) (Q495A1 22-141 limits assumed): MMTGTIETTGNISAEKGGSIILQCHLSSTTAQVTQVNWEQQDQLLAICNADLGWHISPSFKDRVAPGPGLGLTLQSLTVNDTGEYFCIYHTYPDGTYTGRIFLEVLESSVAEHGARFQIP
Sequence of human TIGIT-His protein (human) (Q495A1 22-141 limits assumed): as above

IC50 [1]	EC50 [2]	Top [3]	Substance
0.531 µg/mL	0.00659 µg/mL		Tiragolumab (RG6058, Roche) (antibody)
		110 MFI	total human IgG (antibody)
